According to patent US11160886B2, “Method for labeling of sensitive and thermosensitive targeting biomolecules with technetium based compounds” (BRACCO IMAGING SPA, priority 2016, dated 2021):

Columns and labels:
[1] = Biodistribution in healthy rats; type: in vivo, Sprague-Dawley rats; conditions: for Biodistribution: Blood / Biodistribution: Heart / Biodistribution: Intestine / Biodistribution: Kidneys / Biodistribution: Liver / Biodistribution: Lungs / Biodistribution: Muscle / Biodistribution: Spleen / Biodistribution: Stomach / Biodistribution: Urine: healthy rats
Procedure: Before injection, ^99mTc complexes were purified using a reversed-phase C18 Sep-Pack cartridge to remove the excess of unlabeled ligands. After purification, the activity recovered was further diluted with PBS to obtain a final solution that is <0.5% in EtOH content. The RCP and the stability of the purified complexes were evaluated prior to in vivo administration and for the succeeding 18 h.
Biodistribution in healthy rats. Biodistribution in healthy rats was performed on complex 1, complex 2 and complex 9 in order to evaluate their pharmacokinetic profile and elimination pathways as well as their resistance to in vivo metabolism. Female Sprague-Dawley rats weighing 180-200 g were anesthetized with an intramuscular injection of a mixture of Zoletil (40 mg/kg) and xylazine (2 mg/kg). A jugular vein was surgically exposed and 100 μl (300-370 kBq) of the solution containing the selected [^99mTc(N)(PNP3OH)]-compound was injected. The rats (n=3) were scarified by cervical dislocation at different times after injection. The blood was withdrawn from the heart with a syringe immediately after death and quantified. Organs were excised, rinsed in saline, weighed, and the activity was counted in a Nal well counter.

[2] = Sera and homogenates stability; type: in vitro ADME, human and rat; conditions: 37° C.
Procedure: Sera and Homogenates Stability.
The in vitro stability of complex 1, complex 2, complex 9 and complex 11 was evaluated by monitoring the RCP at different time points using the following procedures. In a propylene test tube 50 μl of purified [^99mTc(N)(PNP3OH)]-compound were added to: a) 450 μl of human serum, b) 450 μl of rat serum, c) 450 μl of homogenate of rat liver and d) 450 μl of homogenate of rat kidneys. The resulting mixture was incubated at 37° C. for 4 h.
The sample was loaded onto a cartridge, preconditioned with MeOH (1 ml) and equilibrated with water (1 ml), and rinsed with MeOH 5% (3 ml). The activity was eluted with a mixture of EtOH/saline 60% (1 ml). Each fraction was collected and the activity measured using a counter (Cobra II, Packard) to determinate the elution profile. 80% of the loaded activity was collected in the elution fraction. An aliquot of this solution (100 μl) was analyzed by HPLC to assess the degradation of the ^99mTc(N)-complexes (FIG. 11).

[3] = Stability in RPMI1640 cell culture medium; type: physicochemical
Procedure: Before the cell experiments, the stability of the purified complex 9 in RPMI1640 medium was evaluated. The radiolabeled peptide was found stable. Data were compared with those of the ^99mTc-HYNIC-RGDfK labeled compound produced according to literature (Decristoforo C, Santos I, Pietzsch H J, Kuenstler J U, Duatti A, Smith C J, Rey A, Alberto R, Von Guggenberg E, Haubner R. Comparison of in vitro and in vivo properties of [99mTc]cRGD peptides labeled using different novel Tc-cores.Q J Nucl Med Mol Imaging. (2007), 51, 33-41).
Thus, to a glass test tube containing 990 μL of cell culture media was added 10 μL of a solution containing 10 μCi of complex 9. The mixture was vortexed and incubated at 37° C. for 2 h. At 30 min, 1 and 2 h, 100 μl of the reaction mixture were withdrawn and analyzed by HPLC chromatography. The radiochemical purity (RCP) of the complexes was found >90%.

[4] = Challenge reactions (transchelation) with excess Cys, GSH or EDTA, RCP by HPLC; type: physicochemical; conditions: Cys 10 mM; for % RCP after incubation with excess Cys: 37° C.
Procedure: The transchelation studies were performed for some compounds monitoring by HPLC the radiochemical purity (RCP) of the complexes in presence of an excess of exchanging ligands over the time. The experiments were performed in triplicate.
Challenge experiments were carried out on the purified [^99mTc(N)(PNP3OH)]-labeled small size compounds (complex 1, complex 2, complex 9 and complex 10) using an excess of glutathione (GSH) or Cys. An aliquot (50 μl) of an aqueous stock solution of cysteine hydrochloride (10 mM; 1 mM) was added to a propylene test tube containing PB (250 μl, 0.2 M; pH 7.4), water (100 μl) and the selected [^99mTc(N)(PNP3OH)]-compound (100 μl). The mixture was vortexed and incubated at 37° C. for 24 h. A control reaction containing an equal volume of water, instead of cysteine hydrochloride, was studied in parallel. At 30 min, 1, 3 and 24 h, aliquots of the reaction mixture were withdrawn and analyzed by HPLC chromatography. A similar procedure was applied using GSH (50 μl, 10 mM) as challenge ligand.
For [^99mTc(N)(PNP3OH)(Cys-Gly-Lys-Gly-ApoMb)]^+ (“Cys-Gly-Lys-Gly” disclosed as SEQ ID NO: 1) additional experiments were conducted using EDTA (50 μl, 10 mM) as exchanging ligand.

[^99mTc(N)(PNP3OH)(Cys-cRGDfK)]^+ [Complex 9]
Pharmacokinetic profile: blood clearance ([1]; healthy animals, within the first 60 min p.i.): rapid blood clearance | Biodistribution: Blood ([1]; 30 min): 0.46 ± 0.17 % IA/g | Biodistribution: Heart ([1]; 30 min): 0.25 ± 0.06 % IA/g | Biodistribution: Intestine ([1]; 30 min): 1.29 ± 0.13 % IA/g | Biodistribution: Kidneys ([1]; 30 min): 4.50 ± 1.59 % IA/g | Biodistribution: Liver ([1]; 30 min): 0.90 ± 0.16 % IA/g | Biodistribution: Lungs ([1]; 30 min): 0.62 ± 0.15 % IA/g | Biodistribution: Muscle ([1]; 30 min): 0.17 ± 0.01 % IA/g | Biodistribution: Spleen ([1]; 30 min): 0.41 ± 0.10 % IA/g | Biodistribution: Stomach ([1]; 30 min): 0.62 ± 0.14 % IA/g | Biodistribution: Urine ([1]; 30 min): 28.98 ± 7.22 % IA/g | Biodistribution: Blood ([1]; 60 min): 0.25 ± 0.03 % IA/g | Biodistribution: Heart ([1]; 60 min): 0.15 ± 0.00 % IA/g | Biodistribution: Intestine ([1]; 60 min): 1.95 ± 0.97 % IA/g | Biodistribution: Kidneys ([1]; 60 min): 4.20 ± 0.35 % IA/g | Biodistribution: Liver ([1]; 60 min): 0.80 ± 0.06 % IA/g | Biodistribution: Lungs ([1]; 60 min): 0.49 ± 0.01 % IA/g | Biodistribution: Muscle ([1]; 60 min): 0.13 ± 0.01 % IA/g | Biodistribution: Spleen ([1]; 60 min): 0.39 ± 0.04 % IA/g | Biodistribution: Stomach ([1]; 60 min): 0.64 ± 0.09 % IA/g | Biodistribution: Urine ([1]; 60 min): 28.16 ± 2.49 % IA/g | Biodistribution: Blood ([1]; 120 min): 0.16 ± 0.11 % IA/g | Biodistribution: Heart ([1]; 120 min): 0.13 ± 0.05 % IA/g | Biodistribution: Intestine ([1]; 120 min): 3.76 ± 0.17 % IA/g | Biodistribution: Kidneys ([1]; 120 min): 3.13 ± 1.69 % IA/g | Biodistribution: Liver ([1]; 120 min): 0.75 ± 0.19 % IA/g | Biodistribution: Lungs ([1]; 120 min): 0.37 ± 0.15 % IA/g | Biodistribution: Muscle ([1]; 120 min): 0.12 ± 0.05 % IA/g | Biodistribution: Spleen ([1]; 120 min): 0.34 ± 0.05 % IA/g | Biodistribution: Stomach ([1]; 120 min): 0.62 ± 0.09 % IA/g | Biodistribution: Urine ([1]; 120 min): 34.58 ± 10.09 % IA/g | Biodistribution: Blood ([1]; 240 min): 0.12 ± 0.01 % IA/g | Biodistribution: Heart ([1]; 240 min): 0.22 ± 0.13 % IA/g | Biodistribution: Intestine ([1]; 240 min): 3.94 ± 0.91 % IA/g | Biodistribution: Kidneys ([1]; 240 min): 7.24 ± 0.55 % IA/g | Biodistribution: Liver ([1]; 240 min): 0.88 ± 0.04 % IA/g | Biodistribution: Lungs ([1]; 240 min): 0.42 ± 0.06 % IA/g | Biodistribution: Muscle ([1]; 240 min): 0.11 ± 0.00 % IA/g | Biodistribution: Spleen ([1]; 240 min): 0.47 ± 0.04 % IA/g | Biodistribution: Stomach ([1]; 240 min): 0.61 ± 0.11 % IA/g | Biodistribution: Urine ([1]; 240 min): 24.91 ± 1.00 % IA/g | Sera stability ([2]; human and rat sera, 3 h): high sera stability | In vitro stability (HPLC peaks versus control) ([2]; human serum, rat serum, rat kidneys homogenate, rat liver homogenate, 2 h): remarkable in vitro stability | Stability in RPMI1640 medium [3]: found stable | Radiochemical purity (RCP) in cell culture media ([3]; 37° C., 30 min, 1 and 2 h): > 90% | % RCP after incubation with excess Cys ([4]; 3 h): 75.93% | % RCP after incubation with excess Cys ([4]; 24 h): 27.31% | Stability toward Cys transchelation relative to neutral complexes ([4]; versus complex 1 and complex 11): higher stability toward Cys transchelation
